Measurements as given in patent US20150166647A1 (VLST, published 2015).

T1: human MIP-1β/CCL4 (human, UniProt Q8NHW4 24-92)
T1 construct: also called Biotin-MIP-1β
T1 chain: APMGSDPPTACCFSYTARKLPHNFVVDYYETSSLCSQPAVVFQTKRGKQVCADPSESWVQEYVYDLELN

T2: human RANTES/CCL5 (human, UniProt P13501 24-91)
T2 construct: also called Biotin-RANTES
T2 sequence: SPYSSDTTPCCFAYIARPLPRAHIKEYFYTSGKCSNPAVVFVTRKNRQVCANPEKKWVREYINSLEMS

T3: XCL1
T3 chemokine: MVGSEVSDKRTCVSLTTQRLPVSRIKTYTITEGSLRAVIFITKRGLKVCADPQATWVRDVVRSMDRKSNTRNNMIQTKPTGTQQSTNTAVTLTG

T4: I-TAC
T4 construct: also called I-TAC/CXCL11; CXCL11
T4 chemokine: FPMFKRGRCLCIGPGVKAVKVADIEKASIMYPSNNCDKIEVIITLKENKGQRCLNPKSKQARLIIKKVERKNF

T5: PF4
T5 construct: also called PF4/CXCL4; CXCL4
T5 chemokine: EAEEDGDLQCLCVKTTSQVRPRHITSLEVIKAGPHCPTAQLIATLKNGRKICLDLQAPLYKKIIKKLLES

T6: BCA1
T6 construct: also called BCA-1/BLC/CXCL13; CXCL13
T6 chemokine: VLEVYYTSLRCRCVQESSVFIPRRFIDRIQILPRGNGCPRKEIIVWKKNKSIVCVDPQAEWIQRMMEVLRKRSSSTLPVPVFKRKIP

T7: BRAK
T7 construct: also called BRAK/CXCL14; CXCL14
T7 chemokine: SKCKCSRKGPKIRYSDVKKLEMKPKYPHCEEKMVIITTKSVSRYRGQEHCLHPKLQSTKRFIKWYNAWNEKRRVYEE

T8: CTACK
T8 construct: also called CTACK/CCL27; CCL27
T8 chemokine: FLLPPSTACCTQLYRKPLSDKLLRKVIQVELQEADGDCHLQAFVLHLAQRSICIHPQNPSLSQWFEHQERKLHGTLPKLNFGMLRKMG


Tests used:
human MIP-1β/CCL4 = molecular target: T1, human MIP-1β/CCL4; experiment: ELISA, hybridoma fusion-well supernatant on biotinylated chemokine on streptavidin plate; background approx. 0.150
human RANTES/CCL5 = molecular target: T2, human RANTES/CCL5; experiment: as above
human MCP-1/CCL2 = molecular target: T9, human MCP-1/CCL2 (human, UniProt P13500 24-99); experiment: as above
T9 construct: also called Biotin-MCP1

XCL1 = molecular target: T3, XCL1; experiment: MSD electrochemiluminescence assay; chemokine coated at 1 µg/mL, 18V4F at 3 µg/mL; background = BSA
I-TAC = molecular target: T4, I-TAC; experiment: as above
IL-8 = molecular target: T10, IL-8; experiment: as above
T10 construct: also called IL-8/CXCL8; CXCL8

PF4 = molecular target: T5, PF4; experiment: as above
Groβ = molecular target: T11, Groβ; experiment: as above
T11 construct: also called Gro-β/CXCL2; CXCL2

SDF = molecular target: T12, SDF; experiment: as above
T12 construct: also called SDF-1/CXCL12; CXCL12

BCA1 = molecular target: T6, BCA1; experiment: as above
BRAK = molecular target: T7, BRAK; experiment: as above
CTACK = molecular target: T8, CTACK; experiment: as above
ENA-78 = molecular target: T13, ENA-78; experiment: as above
T13 construct: also called ENA-78/CXCL5; CXCL5

Groγ = molecular target: T14, Groγ; experiment: as above
T14 construct: also called Gro-γ/CXCL3; CXCL3
T14 sequence (chemokine, as listed by the source): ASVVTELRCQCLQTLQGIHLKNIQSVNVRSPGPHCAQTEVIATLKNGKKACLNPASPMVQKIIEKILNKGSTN

T10 sequence (chemokine, as listed by the source): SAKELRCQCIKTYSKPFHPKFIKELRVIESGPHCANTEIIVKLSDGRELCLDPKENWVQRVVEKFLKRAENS
T9 sequence (P13500 24-99 limits assumed): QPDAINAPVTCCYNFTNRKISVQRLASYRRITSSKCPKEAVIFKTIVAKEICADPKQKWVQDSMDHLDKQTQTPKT
T11 sequence (chemokine, as listed by the source): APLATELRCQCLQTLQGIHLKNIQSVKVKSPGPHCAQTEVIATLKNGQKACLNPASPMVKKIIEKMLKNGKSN
T12 sequence (chemokine, as listed by the source): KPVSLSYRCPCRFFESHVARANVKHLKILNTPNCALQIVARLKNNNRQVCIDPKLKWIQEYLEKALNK
T13 sequence (chemokine, as listed by the source): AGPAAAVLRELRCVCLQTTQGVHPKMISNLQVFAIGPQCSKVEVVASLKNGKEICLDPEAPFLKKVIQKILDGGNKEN

Binder | ELISA signal (human MIP-1β/CCL4) | ELISA signal (human RANTES/CCL5) | ELISA signal (human MCP-1/CCL2) | binding result (XCL1) | binding result (I-TAC) | binding result (IL-8) | binding result (PF4) | binding result (Groβ) | binding result (SDF) | binding result (BCA1) | binding result (BRAK) | binding result (CTACK) | binding result (ENA-78) | binding result (Groγ)
monoclonal antibody 7D12A (antibody, V domains shown, also called MAb 7D12A) VH: EVHLQESGPSLVKPSQTLSLTCSVTGDSITNGYWNWIRKFPGNKLDYMGYISYDGNTYYNPSLKSRFSITRDTSKNQYYLQLNSVTTEDTATYYCSRGDYGTYVMDYWGQGTSVTVSS VL: NIVLTQSPVSLAVSLGQRATISCRASESVDSHGNSFMHWYQQKPGQPPKLLIYLASNLESGVPARFTGGGSGSDFTLTIDPVEADDVGTYYCQQNNEDPYTFGGGTKLEIK | 2.68 | 0.178 | 0.246 | – | – | – | – | – | – | – | – | – | – | –
monoclonal antibody 18V4F (antibody, V domains shown, also called MAb 18V4F) VH: QVQLKESGPGLVAPSQSLSITCTVSGFSLTGYGIHWVRQPPGKGLEWLGVIWPGGGTNYNSALMSRLSISKDNSKSQVFLKMNSLQTDDTAMYYCARGPLITTEVSMDYWGQGTSVTVSS VL: QAVVTQESALTTSPGETVTLTCRSNTGAVTTSNYANWVQEKPDHLFTGLIGGTNNRAPGVPARFSGSLIGDKAALTITGAQTEDEAIYFCALWYSNHWVFGGGTKLTVLG | – | – | – | no binding (tested: 3 µg/mL) | no binding (tested: 3 µg/mL) | no binding (tested: 3 µg/mL) | no binding (tested: 3 µg/mL) | no binding (tested: 3 µg/mL) | no binding (tested: 3 µg/mL) | no binding (tested: 3 µg/mL) | no binding (tested: 3 µg/mL) | no binding (tested: 3 µg/mL) | no binding (tested: 3 µg/mL) | no binding (tested: 3 µg/mL)
